# Measured values reported in patent US20050260733A1, “Proteases and uses thereof” (WYETH, priority 2004, published 2005).
# Like-named read-outs stand apart in the source and are kept apart here.
# How the values were obtained:
# [1] = biological target: undigested bovine aggrecan (bovine) (UniProt P13608); experiment: cell-based or functional assay
# [2] = biological target: undigested bovine aggrecan (bovine) (UniProt P13608); experiment: cell-based or functional assay; remark: listed apart in the source
# Chain of undigested bovine aggrecan (bovine) (P13608 20-2364): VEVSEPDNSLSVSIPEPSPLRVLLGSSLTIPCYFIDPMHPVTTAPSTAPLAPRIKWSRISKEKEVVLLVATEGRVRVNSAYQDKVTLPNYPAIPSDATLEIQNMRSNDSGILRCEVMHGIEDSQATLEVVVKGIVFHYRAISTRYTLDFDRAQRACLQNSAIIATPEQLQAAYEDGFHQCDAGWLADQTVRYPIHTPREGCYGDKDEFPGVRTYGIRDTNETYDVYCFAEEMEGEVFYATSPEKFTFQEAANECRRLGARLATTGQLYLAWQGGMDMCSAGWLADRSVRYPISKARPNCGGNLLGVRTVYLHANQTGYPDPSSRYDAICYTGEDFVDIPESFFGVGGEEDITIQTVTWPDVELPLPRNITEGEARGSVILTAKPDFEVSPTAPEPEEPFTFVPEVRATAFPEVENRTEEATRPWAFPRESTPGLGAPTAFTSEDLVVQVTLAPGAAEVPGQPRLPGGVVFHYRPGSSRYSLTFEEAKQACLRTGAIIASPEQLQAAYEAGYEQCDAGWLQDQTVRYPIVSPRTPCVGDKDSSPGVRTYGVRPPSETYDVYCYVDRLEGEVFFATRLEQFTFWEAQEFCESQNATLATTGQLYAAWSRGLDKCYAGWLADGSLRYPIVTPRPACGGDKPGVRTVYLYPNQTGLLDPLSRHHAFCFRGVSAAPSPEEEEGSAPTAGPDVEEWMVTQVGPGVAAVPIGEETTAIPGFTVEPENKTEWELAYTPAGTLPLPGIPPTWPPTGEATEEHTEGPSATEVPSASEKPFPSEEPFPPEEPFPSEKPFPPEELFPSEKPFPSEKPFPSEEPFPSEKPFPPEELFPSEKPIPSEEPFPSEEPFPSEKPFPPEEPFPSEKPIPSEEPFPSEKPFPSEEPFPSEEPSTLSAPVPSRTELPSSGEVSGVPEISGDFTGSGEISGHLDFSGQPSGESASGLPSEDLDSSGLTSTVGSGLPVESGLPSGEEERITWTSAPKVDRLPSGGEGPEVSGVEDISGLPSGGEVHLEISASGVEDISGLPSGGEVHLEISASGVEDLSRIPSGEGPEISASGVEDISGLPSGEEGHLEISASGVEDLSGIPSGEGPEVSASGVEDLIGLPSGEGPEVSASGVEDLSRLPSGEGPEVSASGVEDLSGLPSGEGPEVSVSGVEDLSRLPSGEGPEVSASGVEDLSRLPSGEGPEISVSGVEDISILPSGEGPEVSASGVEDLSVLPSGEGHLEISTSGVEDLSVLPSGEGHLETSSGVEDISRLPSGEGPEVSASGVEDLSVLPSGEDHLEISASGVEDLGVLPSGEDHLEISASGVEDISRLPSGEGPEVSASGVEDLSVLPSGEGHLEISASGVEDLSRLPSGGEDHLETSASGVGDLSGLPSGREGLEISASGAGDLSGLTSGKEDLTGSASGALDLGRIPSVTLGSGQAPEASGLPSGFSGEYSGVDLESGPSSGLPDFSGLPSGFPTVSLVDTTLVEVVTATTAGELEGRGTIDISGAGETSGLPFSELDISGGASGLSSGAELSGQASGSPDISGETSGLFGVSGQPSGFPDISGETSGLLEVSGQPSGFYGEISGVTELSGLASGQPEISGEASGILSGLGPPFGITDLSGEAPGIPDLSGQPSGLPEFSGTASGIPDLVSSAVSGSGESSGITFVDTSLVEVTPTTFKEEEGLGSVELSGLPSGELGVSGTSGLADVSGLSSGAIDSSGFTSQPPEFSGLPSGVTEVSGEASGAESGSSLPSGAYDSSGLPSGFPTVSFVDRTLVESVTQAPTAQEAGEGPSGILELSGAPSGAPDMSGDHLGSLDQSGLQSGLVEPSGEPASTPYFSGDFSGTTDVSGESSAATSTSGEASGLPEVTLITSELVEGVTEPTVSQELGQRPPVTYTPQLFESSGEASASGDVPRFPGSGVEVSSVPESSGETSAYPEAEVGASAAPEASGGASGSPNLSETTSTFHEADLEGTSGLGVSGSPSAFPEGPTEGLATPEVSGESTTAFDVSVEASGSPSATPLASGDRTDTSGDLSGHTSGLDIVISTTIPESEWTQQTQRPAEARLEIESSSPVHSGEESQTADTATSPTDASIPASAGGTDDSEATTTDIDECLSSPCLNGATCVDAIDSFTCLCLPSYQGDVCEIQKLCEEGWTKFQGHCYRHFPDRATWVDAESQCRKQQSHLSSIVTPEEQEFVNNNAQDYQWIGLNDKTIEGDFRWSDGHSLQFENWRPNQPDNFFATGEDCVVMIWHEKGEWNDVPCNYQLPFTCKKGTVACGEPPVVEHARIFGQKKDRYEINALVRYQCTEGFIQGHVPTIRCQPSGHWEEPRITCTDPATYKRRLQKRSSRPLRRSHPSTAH
substance,measurement,setting,value
recombinant ADAMTS-4 (from UniProt O75173 213-694) (enzyme),amount of enzyme needed for 45% inhibition in the competitive inhibition ELISA for aggrecanase activity,[1],1 ng
same,amount of enzyme needed for 45% inhibition in the competitive inhibition ELISA for aggrecanase activity,[2],0.0135 pM
